{
  "source": "patent US20180036256",
  "key": {"GST-LSD1": {"molecular_target": "GST-LSD1 (UniProt O60341)"}, "GST-LSD1 K114A": {"molecular_target": "GST-LSD1 K114A (UniProt O60341)"}},
  "data": [
    {"substance": "GST-G9A aa786-1210", "values": [
      {"measurement": "methylation at K114 in vitro (methylation assay, Western blot with anti-LSD1 K114me2)", "setting": "GST-LSD1", "value": "GST-LSD1 but not GST-LSD1 K114A is methylated at K114 by G9A in the presence of SAM"},
      {"measurement": "methylation at K114 in vitro (methylation assay, Western blot with anti-LSD1 K114me2)", "setting": "GST-LSD1 K114A", "value": "GST-LSD1 but not GST-LSD1 K114A is methylated at K114 by G9A in the presence of SAM"}
    ]}
  ]
}
